Source: PMC3689661, “Plant Kinesin-Like Calmodulin Binding Protein Employs Its Regulatory Domain for Dimerization” (PLoS ONE, 2013)

Assays:
[1] = target: KCBP (construct not stated, in the KCBP-KIC complex) (Arabidopsis); test: SEC; Superdex-200 run of the KCBP-KIC complex that had been isolated on Ni-NTA agarose; in the presence of Ca2+
[2] = target: His-tagged KIC (Arabidopsis) (UniProt Q9ZPX9); test: as above
[3] = target: the molecule itself; test: SEC; Superdex 200 16/60; 50 mM Tris pH 7.5, 150 mM NaCl, 2 mM MgCl2, 0.1 mM ATP, 1 mM TCEP, and either 1 mM EGTA or 2 mM CaCl2; isolated proteins

Row | Molecule | stoichiometry N [3] | other results
1 | KCBP (construct not stated, in the KCBP-KIC complex) (domain or fragment) |  | stoichiometry N [1]: 2
2 | His-tagged KIC (from UniProt Q9ZPX9 1-135) (natural protein) |  | stoichiometry N [2]: 2
3 | Arabidopsis KIC (29–135) (domain or fragment, UniProt Q9ZPX9 29-135, looked up, KIC, Ca2+ ion sensor and regulator of KCBP, Arabidopsis, residues 29-135; The results speak of a deletion of the first 35 N-terminal residues; The tag's removal is told only in the general purification methods; source: E. coli BL21(DE3), purified (Ni-NTA, TEV-protease); not shown: His6-TRX, N-terminal, cleaved) MAEKMDVEEFVSELCKGFSLLADPERHLITAESLRRNSGILGIEGMSKEDAQGMVREGDLDGDGALNQTEFCVLMVRLSPEMMEDAETWLEKALTQELCNHNLSSMP | 2 | 
4 | Arabidopsis KCBP (884–1253) (domain or fragment, UniProt Q9FHN8 884-1253, looked up, motor domain with intact regulatory helix and negative coil; pET28b construct encoding a tag-free protein; source: E. coli BL21(DE3), purified (Calmodulin-Sepharose 4B)) DMKGKIRVYCRIRPLNEKESSEREKQMLTTVDEFTVEHPWKDDKRKQHIYDRVFDMRASQDDIFEDTKYLVQSAVDGYNVCIFAYGQTGSGKTFTIYGHESNPGLTPRATKELFNILKRDSKRFSFSLKAYMVELYQDTLVDLLLPKSARRLKLEIKKDSKGMVFVENVTTIPISTLEELRMILERGSERRHVSGTNMNEESSRSHLILSVVIESIDLQTQSAARGKLSFVDLAGSERVKKSGSAGCQLKEAQSINKSLSALGDVIGALSSGNQHIPYRNHKLTMLMSDSLGGNAKTLMFVNVSPAESNLDETYNSLLYASRVRTIVNDPSKHISSKEMVRLKKLVAYWKEQAGKKGEEEDLVDIEEDRT | 2 | 
5 | Arabidopsis KCBP (820–1225) (domain or fragment, UniProt Q9FHN8 820-1225, looked up, with the predicted N-terminal dimerization motif, without the regulatory helix; pET32 Xa/Lic; the tag's removal is told only in the general purification methods; the motility assay held motors by an anti-His antibody; also called N-terminal dimer of KCBP without the regulatory helix; source: E. coli BL21(DE3), purified (Ni-NTA, TEV-protease); not shown: His6-Trx, N-terminal, cleaved) NSDMLLLQNNLKELEELREMKEDIDRKNEQTAAILKMQGAQLAELEILYKEEQVLRKRYYNTIEDMKGKIRVYCRIRPLNEKESSEREKQMLTTVDEFTVEHPWKDDKRKQHIYDRVFDMRASQDDIFEDTKYLVQSAVDGYNVCIFAYGQTGSGKTFTIYGHESNPGLTPRATKELFNILKRDSKRFSFSLKAYMVELYQDTLVDLLLPKSARRLKLEIKKDSKGMVFVENVTTIPISTLEELRMILERGSERRHVSGTNMNEESSRSHLILSVVIESIDLQTQSAARGKLSFVDLAGSERVKKSGSAGCQLKEAQSINKSLSALGDVIGALSSGNQHIPYRNHKLTMLMSDSLGGNAKTLMFVNVSPAESNLDETYNSLLYASRVRTIVNDPSKHISSKEMVRL | 2 | 
6 | full length Arabidopsis KIC (1–135) (natural protein, UniProt Q9ZPX9 1-135, looked up, KIC, Ca2+ ion sensor and regulator of KCBP, Arabidopsis, residues 1-135; The tag's removal is told only in the general purification methods; source: E. coli BL21(DE3), purified (Ni-NTA, TEV-protease); not shown: His6, N-terminal, cleaved) MEPTEKSMLLETTSTTKMETKYEDMLPVMAEKMDVEEFVSELCKGFSLLADPERHLITAESLRRNSGILGIEGMSKEDAQGMVREGDLDGDGALNQTEFCVLMVRLSPEMMEDAETWLEKALTQELCNHNLSSMP | 2 | 
